These results are taken from the RNAGym collection of RNA variant scans (doi:10.7554/elife.90254).

Sequences and labels used below:
B1: OR4K15 (parent)
chain: GUUAACGGUCAUAGGCCAUGGAAACUAGGAGCACCAUUUCGCUGCCAGUGAAGAAAUGAACAAAGAAAAUCUGGGCCAGGCAGGCAUCAAAAGAAAUAGUCUUGCGCUCAACCAGAAAGUCUGUAAUCAUUUUAAGGGUA

In the data set the parent is B1. The experiment in a line: self-cleavage, relative activity (ratio to wild type); higher = more cleavage; in vitro, sequencing; the parent is a self-cleaving ribozyme.
As to A118G A140C, the self-cleavage was found to be 1.36. Turning to A24U A116G, the self-cleavage was found to be 0.78. As to A62G A66U, the self-cleavage was determined as 1.78.

As for U57G A90G, the self-cleavage was determined as 0.88.

For the variant C6A A55G, the self-cleavage is 1.13. Turning to U2C C25U, the self-cleavage was found to be 1.85. For C105A U124A, the self-cleavage was 0.02.

A62G C128U: the self-cleavage stood at 1.13.

On to A18U A62C, for which the self-cleavage amounted to 0.88. Turning to A36C U49A, the self-cleavage was determined as 2. Take A18G A56G: the self-cleavage was 1.27. Take G80C U132A: the self-cleavage was 0.1. For U43C A69U, the self-cleavage is 1.74. To A22G A33C belongs 0.57; to A4U A59U, 1.95; to U57C U70A, 0.68.

C45A A117G: the self-cleavage was 2.96. For the variant A89G C101U, the self-cleavage turned out to be 0.29. Consider A56G A82U, for which the self-cleavage turned out to be 0.23. Regarding A56G A82G, the self-cleavage stood at 0.56. As to A11G A129G, the self-cleavage is 0.83. In the case of U43A A82G it was 0.13; in that of G83A A94G, 1.79; in that of A23G A33G, 0.84. On to C45U A68G, for which the self-cleavage is 1.96.

Turning to A5G A68C, the self-cleavage turned out to be 1.03. Turning to U12C A92G, the self-cleavage was determined as 0.58. Turning to A30U U130C, the self-cleavage was 0.34. For the variant A62G G83A, the self-cleavage is 0.99. In the case of U9C G21A it was 1.38; in that of A86U A90G, 1.3; in that of A95G A135C, 2.68. To A96U U102A belongs 1.08. With G99A A117G, the self-cleavage was determined as 0.36. To C105U A111G belongs 0.02. Turning to A36G A92G, the self-cleavage is 1. To G104A A126U belongs 0.09. Regarding A24G U131A, the self-cleavage is 1.22. Take A86U U133C: the self-cleavage was 2.71. To C101U belongs 0.41; to A18U U131C, 0.74; to C46A A60G, 0.67. Take A92G A135U: the self-cleavage is 2.03. To A62G A68G belongs 1.12; to A47U G115A, 0.15.

Consider G83A U108C, for which the self-cleavage was found to be 0.02. Turning to A22U G29A, the self-cleavage worked out at 0.84. In the case of C6U A60G it was 0.8; in that of A23G A59U, 1. In the case of A64C it was 1.69; in that of U37A U139C, 1.19; in that of U38C U120C, 1.06. As for U12C A67G, the self-cleavage worked out at 1.33. Consider A89C U132A, for which the self-cleavage was found to be 1.97.

For G73A A117U, the self-cleavage is 0.17. As for A36U A63G, the self-cleavage was 1.98. To C34U U103A belongs 0.44. A52U G99A: the self-cleavage is 0.22.

For A11U A116U, the self-cleavage amounted to 0.5.

Consider G106U, for which the self-cleavage was 0.01.

As to A36G U124C, the self-cleavage turned out to be 0.45.

Consider A68U U122C, for which the self-cleavage came to 1.51. As to A11U A125G, the self-cleavage was 1.3. Take G41A A89G: the self-cleavage was found to be 2.8.

With U37A A116G, the self-cleavage is 0.18. In the case of U39C U70C it was 0.95. Take A30G C121A: the self-cleavage was determined as 2.31. For U103C U127C, the self-cleavage came out at 0.26. On to C81U A129U, for which the self-cleavage was found to be 0.16. As to A98U G115A, the self-cleavage was determined as 0.1. Take A47C A51G: the self-cleavage came out at 1.5. As to C34U U39C, the self-cleavage was 1.5. Regarding G41A U130G, the self-cleavage came to 1.4. In the case of A30G A118U, the self-cleavage amounted to 0.62.

For the variant U43C A78G, the self-cleavage is 0.26. As to U39C A134G, the self-cleavage came out at 1.83. As for A59G U100C, the self-cleavage came out at 2.06. On to A64G G74A, for which the self-cleavage was found to be 0.36. Take U9C A23G: the self-cleavage came out at 1.02. On to G15C A78U, for which the self-cleavage was found to be 0.37.

As to A60G U100C, the self-cleavage was 1.35. A82U U87A: the self-cleavage was 0.02. In the case of G84U U130C it was 0.28; in that of A82U A90U, 0.08; in that of U43C C45A, 1.19. Consider G14U A56G, for which the self-cleavage was found to be 1.18.

On to U43C A52G, for which the self-cleavage was 1.49. Consider A91G A95C, for which the self-cleavage amounted to 0.94. To C34A A92C belongs 0.26.

As to A23G U130C, the self-cleavage came out at 0.57. To A64G A91G belongs 1.33.

As for A27G A140G, the self-cleavage was determined as 1. In the case of C10U G104A, the self-cleavage was found to be 0.06.

As to U108C U127A, the self-cleavage amounted to 0.01. With A64G G106A, the self-cleavage was found to be 0.04. On to U12C A90G, for which the self-cleavage turned out to be 0.97. To G29A A78C belongs 0.33; to C16G A24G, 0.51.

On to U57C A96G, for which the self-cleavage turned out to be 1.17. In the case of C107U A118U it was 0.01; in that of U37C A95G, 2.37. As to U72A A114C, the self-cleavage came out at 0.06. In the case of C46U G138U it was 1.93. U19A G31A: the self-cleavage worked out at 1.02. In the case of U43C A82U it was 0.18; in that of G80C, 0.07; in that of G44A A89U, 1.59. Consider U43A G65A, for which the self-cleavage turned out to be 2.07.

A27G A125U: the self-cleavage amounted to 1.41. For A13U A67G, the self-cleavage was found to be 1.14. As for A116G U127A, the self-cleavage came out at 0.72. Regarding U100A, the self-cleavage worked out at 0.61. A27U U120C: the self-cleavage was determined as 0.85.

A51G A96G: the self-cleavage turned out to be 1.47. For the variant A18U U122A, the self-cleavage came to 0.64. For the variant G74U G104A, the self-cleavage turned out to be 0.02. As for A47C U97C, the self-cleavage came out at 0.33.

Turning to A33U A51G, the self-cleavage is 1.97. Take U2A A118G: the self-cleavage is 0.95.

Turning to A5U U43A, the self-cleavage stood at 2.16. For A69G A110U, the self-cleavage came out at 0.98.

On to G74U A94G, for which the self-cleavage was 0.41.

In the case of A33U A110U, the self-cleavage came out at 1.71. As to G41A C113U, the self-cleavage turned out to be 0.02.

As for A82G U102C, the self-cleavage turned out to be 1.16. Turning to U9C A91G, the self-cleavage came out at 1.2. For the variant U87A A94U, the self-cleavage is 1.52. With A69U A82G, the self-cleavage came out at 0.63.

On to U12C A23U, for which the self-cleavage was determined as 0.97. On to A63U A134G, for which the self-cleavage worked out at 0.32. Regarding A66U G75C, the self-cleavage is 0.18. For the variant U19A A92U, the self-cleavage worked out at 2.13.

In the case of A52U A125G, the self-cleavage turned out to be 0.79. With A60G U132A, the self-cleavage came to 1.17. Regarding A18G U131C, the self-cleavage came to 1.63. U70A C105U: the self-cleavage is 0.16. As for A13U A24G, the self-cleavage came to 1.06.

With A24C U38C, the self-cleavage was found to be 1.26. On to C105G A135G, for which the self-cleavage amounted to 0.03. Take A11U U102A: the self-cleavage was found to be 0.7.

As to A27G U108C, the self-cleavage is 0.02. Regarding A47G A92U, the self-cleavage was found to be 1.18. As for A69U U122A, the self-cleavage turned out to be 2.21. In the case of A18U A94G, the self-cleavage came out at 1.06.

With G7A A78U, the self-cleavage was 0.33. On to A11C A24G, for which the self-cleavage was determined as 1.94.

As for U9G A91C, the self-cleavage was 0.6. Take A5G A56U: the self-cleavage stood at 1.18.

On to A51U A114G, for which the self-cleavage was 0.19. As to A86G U102A, the self-cleavage is 1.36.

A62G A140G: the self-cleavage is 1.36. Turning to U57C U103A, the self-cleavage was 0.15. In the case of G21A U130C, the self-cleavage stood at 0.53. As to A5G U38C, the self-cleavage was 1.14. On to A59U U102C, for which the self-cleavage was 1.23. In the case of G7U U130C it was 1.45; in that of U87C A125G, 0.41; in that of A78G U133C, 0.27. Consider A22U U57G, for which the self-cleavage was found to be 1.17. For U2G U132C, the self-cleavage was determined as 1.4. In the case of A33U A36G it was 2.32; in that of U2C G50U, 1.13; in that of G106C A118G, 0. Regarding A52G C76G, the self-cleavage was 0.03. As for C6U U130G, the self-cleavage was found to be 0.44. In the case of A5G A118U, the self-cleavage is 0.56. In the case of A5G A64G, the self-cleavage came to 1.16.
